According to patent US8669347B2, “Truncated variant of the mammalian target for rapamycin (MTOR) protein” (UCL Business PLC, priority 2007, dated 2014):

Tests used:
[1] = system: S6K1; assay: mTOR in vitro kinase assay, His-S6K1C substrate; format: biochemical; conditions: FLAG immunoprecipitate from Hek293 cells, compared with mTORα
Procedure: (§1) HEK293 cells were transfected with pcDNA3.1 or pcDNA 3.1 mTORβ. One day later, cells were starved for 24 hours and than stimulated with 10% fetal bovine serum for 1 hour. Rapamycin (10 nM) was added 30 minutes before stimulation. Cells were lysed, resolved by SDS-PAGE and immunobloted with the C-terminal anti-mTOR and pS2448 mTOR antibodies. […] Two days later, cells were lysed and immunoprecipitated with anti-FLAG antibody. The immune complexes were used in mTOR in vitro kinase assay with His-4E-BP1 and His-S6K1C as substrates. Kinase reactions were resolved by SDS-PAGE and immunoblotted with phosphospecific antibodies to 4E-BP1 p65 and S6K1 p389. The level of immunoprecipitated FLAG-mTORα and FLAG-mTORβ was measured by Western blotting with anti-FLAG.
(§2) Is mTORβ able to phosphorylate S6K and 4E-BP1, which are the main physiological substrates for mTORα? […] The immune complexes were then used in mTOR kinase reactions, containing cold ATP and recombinant 4E-BP1 or His-S6K1C. The kinase reactions were resolved by SDS-PAGE and immunoblotted with phosphospecific antibodies pT389-S6K1 and pS65-4E-BP1.
(§3) mTOR in vitro kinase assay was performed as published previously (Kim et al. 2002). […] The reactions were stopped by adding 5× sample buffer and resolved by SDS-PAGE and analyzed by immunoblotting.

[2] = system: 4E-BP1; assay: mTOR in vitro kinase assay, 4E-BP1 substrate; format: biochemical; conditions: FLAG immunoprecipitate from Hek293 cells, recombinant 4E-BP1 substrate, compared with mTORα
Procedure: as §1, §2, §3

[3] = system: Raptor, Rictor, and GβL; assay: Co-immunoprecipitation with mTOR binding partners in HEK293 cells; conditions: anti-FLAG immunoprecipitation from transfected HEK293 cells
Procedure: HEK293 cells were transfected with pcDNA3.1-mTORβ-FLAG and pRK-Raptor-HA or pcDNA3.1-mTORβ-FLAG and pRK-Rictor-Myc or pcDNA3.1-mTORβ-FLAG and pcRK-GβL. The supernatants of lysed cells were immunoprecipitated with anti-FLAG antibody or control nonspecific antibody. The immune complexes or total cell lysates from transfected cells (15 μg) were resolved by SDS-PAGE and probed in Western blotting with anti-HA, anti-Rictor, or anti-GβL antibodies.
HEK293 cells were washed with ice-cold phosphate-buffered saline (PBS) and extracted with the lysis buffer containing 50 mM HEPES (pH 7.5), 150 mM NaCl, 1% (v/v) Triton X100, 2 mM EDTA, 50 mM sodium fluoride, 10 mM sodium pyrophosphate, 1 mM sodium orthovanadate, and a mixture of protease inhibitors (Roche Applied Science). Whole-cell extracts were centrifuged at 10,000×g for 30 minutes at 4° C. Endogenous or transiently expressed proteins were immunoprecipitated with corresponding antibodies immobilized on protein A-Sepharose beads (Amersham Biosciences) for 3 hours at 4° C. The immune complexes were then washed once with Tris-buffered saline containing 0.05% Tween 20 and the Wash Buffer 1 (50 mM HEPES [pH 7.5], 40 mM NaCl, and 2 mM EDTA) with 1% Triton X-100, Wash Buffer 1 with 500 mM LiCl and 0.5% Triton X-100, Wash Buffer 1 with 500 mM LiCl, and Wash Buffer 2 (50 mM HEPES [pH 7.5] and 150 mM NaCl). […]

[4] = system: Hek293 stable cell lines; assay: Cell proliferation assay (Resazurin based) of Hek293 stable cell lines; design: species or system human; conditions: six independent studies
Procedure: (§4) Hek293 stable cell lines, over-expressing mTORβ wt, mTORα wt or EGFP were seeded into a 96 well plate at various densities (250, 500, 1000 and 2000 cells per well) and grown under standard conditions for 7 days. Cell numbers were than measured in each well by a Resosurin based assay. Normalized growth curves for each cell line were calculated using data from six independent experiments (A). Western blot analysis of total cell lysates of stable cell lines with antibodies to c-myc and its transcription targets (B). The level of proteins was densitometrically measured, actin normalized and folds were calculated against EGFP expressing stable cell line (C).
(§5) HEK293 stable cell lines, overexpressing mTORβ wt, mTORβ kinase-dead or EGFP were seeded into 96 well plate at various densities (1000, 2000, 4000 and 8000 cells per well) and grown under standard conditions for 5 days. Cell numbers were then measured in each well by Resazurin based assay. Normalized growth curves for each cell line were calculated using data from six independent experiments (A). Western blot analysis of total cell lysates of stable cell lines with antibodies to c-myc and its transcription targets. The level of proteins was densitometrically measured, actin normalized and folds were calculated against EGFP expressing stable cell line (B). […]

[5] = system: c-Myc; assay: Western blot of c-Myc protein level in transfected HEK293 cells; format: cell-based, human; conditions: HEK293 transiently transfected, lysed two days after transfection
Procedure: as §4, §5

[6] = system: Hek293 cells; assay: BrdU pulse-chase cell cycle analysis by FACS; format: cell-based, human; conditions: overexpressing cells vs mTORα or control (EGFP) cells; BrdU 30 minutes, chased 24 hours
Procedure: HEK293 cells stably overexpressing mTORβ, mTORα or EGFP were pulse labeled with BrdU for 30 minutes and chased every 2 hours for 24 hours. The incorporation of BrdU was measured by FACS analysis. Duration of G1, S and G2 phases of cell cycle observed for each cell line is presented on graph. SD, p=0.05.
To further investigate the role of mTORβ in the cell cycle, Hek293 cells overexpressing mTORβ, mTORα or EGFP were pulse labeled with BrdU for 30 minutes and chased every 2 hours for 24 hours. Incorporation of BrdU into the cells was measured by FACS analysis. The duration of the G1, S and G2 phases of cell cycle observed for each cell line was determined (see FIG. 12). The duration of S and G2 phases were similar in all three cell groups. However, the duration of the G1 phase was shorter in the mTORβ overexpressing cells than in the mTORα or control cells.

[7] = system: Hek293 stable cell lines; assay: Serum starvation cell survival, Trypan Blue dye exclusion assay; format: cell-based, human; conditions: stable overexpressing lines serum starved for 60 hours
Procedure: Hek293 stable cell lines, overexpressing mTORβ wt, mTORα wt, mTORβ kinase dead or EGFP were serum starved for 60 hours. Cell survival was assessed by the Trypan Blue dye exclusion assay. Data are means±SE of 5 experiments. * P value≦0.01.
The effects of mTORβ in serum starved cells were also assessed. Hek293 stable cell lines, overexpressing mTORβ wt, mTORα wt, mTORβ kinase dead or EGFP were serum starved for 60 hours. Cell survival was assessed by the Trypan Blue dye exclusion assay.

[8] = system: Hek293 cells; assay: Colony formation in agarose (oncogenic potential); format: cell-based, human; conditions: stably overexpressing cells, 14 days, MTT stain, compared with mTORα and control cells
Procedure: HEK293 cells stably overexpressing mTORβ, mTORα or EGFP were plated in a thin layer of agarose in culture medium. After 14 days, colonies were stained using MTT (A). Colonies were counted using Quantity One Software (Bio-Rad) and folds were plotted (B). Data are means±SE of 4 experiments. * P value≦0.01.
To further investigate the effect of mTORβ expression on cell oncogenic potential, Hek293 cells stably overexpressing mTORβ, mTORα or EGFP were plated in a thin layer of agarose in culture medium. After 14 days, colonies were stained using MTT (see FIG. 14A). Colonies were counted using quantity 1 software (Bio-Rad) and folds were plotted (see FIG. 14B).

[9] = system: Hek293 cells; assay: Recovery from Sorbitol-induced stress; format: cell-based, human; conditions: overexpressing cells, compared with mTORα overexpressing cells

B1: mTORβ: splice form of mTOR: fusion of amino acids 1 to 23 and 1867 to 2549 of mTORα, 706 amino acids (SEQ ID NO: 2) (protein, listed as Homo sapiens)
chain: MLGTGPAAATTAATTSSNVSVLQKKVTEDLSKTLLMYTVPAVQGFFRSISLSRGNNLQDTLRVLTLWFDYGHWPDVNEALVEGVKAIQIDTWLQVIPQLIARIDTPRPLVGRLIHQLLTDIGRYHPQALIYPLTVASKSTTTARHNAANKILKNMCEHSNTLVQQAMMVSEELIRVAILWHEMWHEGLEEASRLYFGERNVKGMFEVLEPLHAMMERGPQTLKETSFNQAYGRDLMEAQEWCRKYMKSGNVKDLTQAWDLYYHVFRRISKQLPQLTSLELQYVSPKLLMCRDLELAVPGTYDPNQPIIRIQSIAPSLQVITSKQRPRKLTLMGSNGHEFVFLLKGHEDLRQDERVMQLFGLVNTLLANDPTSLRKNLSIQRYAVIPLSTNSGLIGWVPHCDTLHALIRDYREKKKILLNIEHRIMLRMAPDYDHLTLMQKVEVFEHAVNNTAGDDLAKLLWLKSPSSEVWFDRRTNYTRSLAVMSMVGYILGLGDRHPSNLMLDRLSGKILHIDFGDCFEVAMTREKFPEKIPFRLTRMLTNAMEVTGLDGNYRITCHTVMEVLREHKDSVMAVLEAFVYDPLLNWRLMDTNTKGNKRSRTRTDSYSAGQSVEILDGVELGEPAHKKTGTTVPESIHSFIGDGLVKPEALNKKAIQIINRVRDKLTGRDFSHDDTLDVPTQVELLIKQATSHENLCQCYIGWCPFW
phosphorylation of S6K1 (pT389) in vitro [1]: to a lesser extent than mTORα
phosphorylation of 4E-BP1 (pS65) in vitro [2]: to a lesser extent than mTORα
complex formation with exogenously expressed Raptor, Rictor, and GβL [3]: form specific complexes
proliferation rate in comparison to control (EGFP) cells ([4]; overexpressing stable lines grown 5 days): approximately 1.6 times faster
proliferation compared to control (EGFP) cells ([4]; overexpressing stable lines grown 7 days): proliferate faster
c-Myc protein level [5]: significant increase
duration of the G1 phase [6]: shorter
cell survival after serum starvation [7]: protected cells from starvation induced cell death
cell oncogenic potential (colonies in agarose) [8]: increase in cell oncogenic potential
recovery from Sorbitol-induced stress [9]: much faster
